Experiment [1] has as its target Deleted in Colorectal Cancer (DCC), wild type, overexpressed in Cos7 cells (UniProt P70211). Put plainly: immunostaining of cells or tissue.
The target of experiment [2] is DCC I372R mutant, overexpressed in Cos7 cells (UniProt P70211). Put plainly: immunostaining of cells or tissue.

Regarding recombinant Draxin (ligand), the Draxin mean fluorescence on DCC+ cells in experiment [1] is 0.95; in experiment [2] it was 0.72.

Source of the values: publication doi:10.64898/2025.12.11.693717.
